The values that follow come from publication PMC7379967 (The Febs Journal, 2018).

In data set [1] the target is T1, cdMMP‐3 (Homo sapiens, UniProt P08254). Put plainly: Gelatin‐Sepharose bound serum proMMP‐9 activation by cdMMP‐3, zymography. The data set is classed as biochemical. As to conditions: 5 μl serum, 0-14.2 nM cdMMP‐3, 3 h, 37 °C, CDG patients n = 5, healthy controls n = 7, Fig. 8.
Data set [2] addresses T1, cdMMP‐3. As to the kind of experiment: Stepwise activation of proMMP‐9 glycoforms by cdMMP‐3, gelatin zymography. The format is biochemical. As to conditions: with galectin‐3 (1/10), Fig. 9B.

T1 sequence (P08254 100-272 limits assumed): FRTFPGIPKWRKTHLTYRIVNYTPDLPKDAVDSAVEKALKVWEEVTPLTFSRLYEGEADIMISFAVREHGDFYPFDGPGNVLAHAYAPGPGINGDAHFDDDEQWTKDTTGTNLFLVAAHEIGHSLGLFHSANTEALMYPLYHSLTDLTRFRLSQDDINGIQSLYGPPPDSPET

B1: proMMP‐9 from CDG patients: serum proMMP‐9 of PMM2‐CDG patients, defective N‐glycosylation (protein, UniProt P14780 20-707, looked up)
pro-form: APRQRQSTLVLFPGDLRTNLTDRQLAEEYLYRYGYTRVAEMRGESKSLGPALLLLQKQLSLPETGELDSATLKAMRTPRCGVPDLGRFQTFEGDLKWHHHNITYWIQNYSEDLPRAVIDDAFARAFALWSAVTPLTFTRVYSRDADIVIQFGVAEHGDGYPFDGKDGLLAHAFPPGPGIQGDAHFDDDELWSLGKGVVVPTRFGNADGAACHFPFIFEGRSYSACTTDGRSDGLPWCSTTANYDTDDRFGFCPSERLYTQDGNADGKPCQFPFIFQGQSYSACTTDGRSDGYRWCATTANYDRDKLFGFCPTRADSTVMGGNSAGELCVFPFTFLGKEYSTCTSEGRGDGRLWCATTSNFDSDKKWGFCPDQGYSLFLVAAHEFGHALGLDHSSVPEALMYPMYRFTEGPPLHKDDVNGIRHLYGPRPEPEPRPPTTTTPQPTAPPTVCPTGPPTVHPSERPTAGPTGPPSAGPTGPPTAGPSTATTVPLSPVDDACNVNIFDAIAEIGNQLYLFKDGKYWRFSEGRGSRPQGPFLIADKWPALPRKLDSVFEERLSKKLFFFSGRQVWVYTGASVLGPRRLDKLGLGADVAQVTGALRSGRGKMLLFSGRRLWRFDVKAQMVDPRSASEVDRMFPGVPLDTHDVFQYREKAYFCQDRFYWRVSSRSELNQVDQVGYVTYDILQCPED
modifications: pro-form
B1: the “activation of serum proMMP‐9 by MMP‐3” value with cdMMP‐3 [1] is “significantly faster activation”.

B2: recombinant proMMP‐9: recombinant full‐length human proMMP‐9 expressed in Sf‐9 insect cells (protein, UniProt P14780 20-707, looked up)
pro-form: B1 pro-form
modifications: pro-form
As to B2, in the data set with cdMMP‐3 [2], the “conversion into active form on overnight incubation with cdMMP‐3 and galectin‐3” value is “fully converted into its active form”.
